In article PMC2756588:

T1: Cyk3, Q07533
T1 sequence (Q07533 1-83, looked up): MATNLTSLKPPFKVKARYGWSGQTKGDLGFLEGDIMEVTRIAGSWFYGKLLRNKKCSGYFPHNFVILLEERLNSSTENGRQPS

T2: Sla1-3, P32790
T2 sequence (P32790 344-424, looked up): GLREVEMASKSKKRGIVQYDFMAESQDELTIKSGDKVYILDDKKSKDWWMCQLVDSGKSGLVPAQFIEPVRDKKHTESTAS

T3: Bzz1-1, P38822
T3 sequence (P38822 478-572, looked up): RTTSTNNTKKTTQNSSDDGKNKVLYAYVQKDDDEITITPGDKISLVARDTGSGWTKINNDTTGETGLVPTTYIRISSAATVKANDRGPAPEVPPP

T4: Cdc25, P04821
T4 sequence (P04821 50-136, looked up): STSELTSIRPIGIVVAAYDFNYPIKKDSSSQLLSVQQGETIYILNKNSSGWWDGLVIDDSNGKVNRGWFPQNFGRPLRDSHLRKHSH

T5: Fus1, P11710
T5 sequence (P11710 432-512, looked up): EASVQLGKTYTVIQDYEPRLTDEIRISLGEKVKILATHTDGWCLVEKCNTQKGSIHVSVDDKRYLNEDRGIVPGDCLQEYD

T6: Pin3, Q06449
T6 sequence (Q06449 53-122, looked up): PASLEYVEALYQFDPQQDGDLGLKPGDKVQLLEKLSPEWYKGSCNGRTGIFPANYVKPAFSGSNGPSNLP

T7: Lsb1, P53281
T7 sequence (P53281 45-122, looked up): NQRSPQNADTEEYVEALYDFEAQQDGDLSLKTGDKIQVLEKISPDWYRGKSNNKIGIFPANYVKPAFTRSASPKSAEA

T8: Lsb3, P43603
T8 sequence (P43603 385-451, looked up): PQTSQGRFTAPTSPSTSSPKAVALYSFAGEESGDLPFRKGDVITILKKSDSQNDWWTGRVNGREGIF

T9: Hse1, P38753
T9 sequence (P38753 208-285, looked up): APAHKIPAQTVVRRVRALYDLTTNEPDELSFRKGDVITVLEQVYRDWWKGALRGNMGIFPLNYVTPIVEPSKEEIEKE

T10: Bzz1-2, P38822
T10 sequence (P38822 568-633, looked up): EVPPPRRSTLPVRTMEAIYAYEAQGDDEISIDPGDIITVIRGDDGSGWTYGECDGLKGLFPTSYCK

T11: Lsb4, P32793
T11 sequence (P32793 402-468, looked up): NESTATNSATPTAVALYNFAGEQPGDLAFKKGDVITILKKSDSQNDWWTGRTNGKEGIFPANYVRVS

T12: Boi1, P38041
T12 sequence (P38041 1-86, looked up): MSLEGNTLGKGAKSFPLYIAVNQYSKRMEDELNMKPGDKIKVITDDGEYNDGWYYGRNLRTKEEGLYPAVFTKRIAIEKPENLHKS

T13: Abp1, P15891
T13 sequence (P15891 535-592, looked up): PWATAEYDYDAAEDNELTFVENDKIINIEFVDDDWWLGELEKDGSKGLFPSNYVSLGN

T14: Myo5, Q04439
T14 sequence (Q04439 1072-1160, looked up): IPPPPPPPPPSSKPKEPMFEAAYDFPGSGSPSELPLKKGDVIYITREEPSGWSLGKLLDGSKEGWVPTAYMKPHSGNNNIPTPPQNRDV

T15: Bbc1, P47068
T15 sequence (P47068 1-78, looked up): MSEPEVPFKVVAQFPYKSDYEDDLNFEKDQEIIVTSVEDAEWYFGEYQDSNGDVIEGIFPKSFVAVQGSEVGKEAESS

T16: Sla1-2, P32790
T16 sequence (P32790 60-140, looked up): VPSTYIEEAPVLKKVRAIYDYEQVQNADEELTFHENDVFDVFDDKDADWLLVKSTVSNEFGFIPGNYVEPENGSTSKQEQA

T17: Pex13, P80667
T17 sequence (P80667 295-386, looked up): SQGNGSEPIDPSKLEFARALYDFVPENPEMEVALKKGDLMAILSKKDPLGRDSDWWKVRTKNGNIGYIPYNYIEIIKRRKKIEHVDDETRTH

T18: Hof1, Q05080
T18 sequence (Q05080 590-669, looked up): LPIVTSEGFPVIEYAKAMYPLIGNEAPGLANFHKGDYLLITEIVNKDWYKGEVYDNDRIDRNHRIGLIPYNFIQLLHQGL

T19: Boi2, P39969
T19 sequence (P39969 32-116, looked up): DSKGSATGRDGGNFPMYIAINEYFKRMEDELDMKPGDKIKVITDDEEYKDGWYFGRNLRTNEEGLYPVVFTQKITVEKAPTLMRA

T20: Bud14, P27637
T20 sequence (P27637 247-328, looked up): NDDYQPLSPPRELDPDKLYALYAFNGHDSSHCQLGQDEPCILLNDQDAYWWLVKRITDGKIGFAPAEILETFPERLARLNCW

T21: Nbp2, Q12163
T21 sequence (Q12163 103-180, looked up): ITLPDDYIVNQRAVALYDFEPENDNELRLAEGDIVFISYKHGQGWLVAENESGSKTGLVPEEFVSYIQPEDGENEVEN


Target: T1, Cyk3, Q07533
Test: SPOT array
Details: median of control spots 1451

SPOT intensity | Binder
1 | VATSTSPKLPPRGKQ
4 | NPLPKEPRLPKRKVA
0 | PALPSLPPPPLLNVD

Target: Bem1-2, P29366
Test: SPOT array
Details: median of control spots 4347

Sequence of Bem1-2, P29366 (P29366 139-227): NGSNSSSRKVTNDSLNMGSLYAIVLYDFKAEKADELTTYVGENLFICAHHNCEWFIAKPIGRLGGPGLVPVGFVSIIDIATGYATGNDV

SPOT intensity | Binder
0 | VATSTSPKLPPRGKQ
1 | NPLPKEPRLPKRKVA
0 | PALPSLPPPPLLNVD

Target: T2, Sla1-3, P32790
Test: SPOT array
Details: median of control spots 5475

SPOT intensity | Binder
13 | VATSTSPKLPPRGKQ
45 | NPLPKEPRLPKRKVA
0 | PALPSLPPPPLLNVD

Target: T3, Bzz1-1, P38822
Test: SPOT array
Details: median of control spots 4446

SPOT intensity | Binder
2 | VATSTSPKLPPRGKQ
6 | NPLPKEPRLPKRKVA
2 | PALPSLPPPPLLNVD

Target: GST
Test: SPOT array
Details: median of control spots 978

SPOT intensity | Binder
0 | VATSTSPKLPPRGKQ
2 | NPLPKEPRLPKRKVA
0 | PALPSLPPPPLLNVD

Target: T4, Cdc25, P04821
Test: SPOT array
Details: median of control spots 969

SPOT intensity | Binder
0 | VATSTSPKLPPRGKQ
22 | NPLPKEPRLPKRKVA
0 | PALPSLPPPPLLNVD

Target: Myo3, P36006
Test: SPOT array
Details: median of control spots 468

SPOT intensity | Binder
0 | VATSTSPKLPPRGKQ
7 | NPLPKEPRLPKRKVA
598 | PALPSLPPPPLLNVD

Target: T5, Fus1, P11710
Test: SPOT array
Details: median of control spots 1200

SPOT intensity | Binder
0 | VATSTSPKLPPRGKQ
2 | NPLPKEPRLPKRKVA
0 | PALPSLPPPPLLNVD

Target: T6, Pin3, Q06449
Test: SPOT array
Details: median of control spots 2171

SPOT intensity | Binder
15 | VATSTSPKLPPRGKQ
10 | NPLPKEPRLPKRKVA
0 | PALPSLPPPPLLNVD

Target: T7, Lsb1, P53281
Test: SPOT array
Details: median of control spots 388

SPOT intensity | Binder
561 | VATSTSPKLPPRGKQ
19 | NPLPKEPRLPKRKVA
0 | PALPSLPPPPLLNVD

Target: T8, Lsb3, P43603
Test: SPOT array
Details: median of control spots 406

SPOT intensity | Binder
695 | VATSTSPKLPPRGKQ
282 | NPLPKEPRLPKRKVA
0 | PALPSLPPPPLLNVD

Target: T9, Hse1, P38753
Test: SPOT array
Details: median of control spots 1727

SPOT intensity | Binder
0 | VATSTSPKLPPRGKQ
191 | NPLPKEPRLPKRKVA
0 | PALPSLPPPPLLNVD

Target: T10, Bzz1-2, P38822
Test: SPOT array
Details: median of control spots 4538

SPOT intensity | Binder
0 | VATSTSPKLPPRGKQ
29 | NPLPKEPRLPKRKVA
0 | PALPSLPPPPLLNVD

Target: T11, Lsb4, P32793
Test: SPOT array
Details: median of control spots 397

SPOT intensity | Binder
275 | VATSTSPKLPPRGKQ
288 | NPLPKEPRLPKRKVA
0 | PALPSLPPPPLLNVD

Target: T12, Boi1, P38041
Test: SPOT array
Details: median of control spots 1162

SPOT intensity | Binder
0 | VATSTSPKLPPRGKQ
4 | NPLPKEPRLPKRKVA
0 | PALPSLPPPPLLNVD

Target: T13, Abp1, P15891
Test: SPOT array
Details: median of control spots 935

SPOT intensity | Binder
23 | VATSTSPKLPPRGKQ
131 | NPLPKEPRLPKRKVA
0 | PALPSLPPPPLLNVD

Target: T14, Myo5, Q04439
Test: SPOT array
Details: median of control spots 471

SPOT intensity | Binder
0 | VATSTSPKLPPRGKQ
0 | NPLPKEPRLPKRKVA
688 | PALPSLPPPPLLNVD

Target: T15, Bbc1, P47068
Test: SPOT array
Details: median of control spots 796

SPOT intensity | Binder
23 | VATSTSPKLPPRGKQ
221 | NPLPKEPRLPKRKVA
0 | PALPSLPPPPLLNVD

Target: T16, Sla1-2, P32790
Test: SPOT array
Details: median of control spots 712

SPOT intensity | Binder
0 | VATSTSPKLPPRGKQ
2 | NPLPKEPRLPKRKVA
0 | PALPSLPPPPLLNVD

Target: T17, Pex13, P80667
Test: SPOT array
Details: median of control spots 1341

SPOT intensity | Binder
87 | VATSTSPKLPPRGKQ
16 | NPLPKEPRLPKRKVA
2 | PALPSLPPPPLLNVD

Target: Rvs167, P39743
Test: SPOT array
Details: median of control spots 2707

Sequence of Rvs167, P39743 (P39743 419-482): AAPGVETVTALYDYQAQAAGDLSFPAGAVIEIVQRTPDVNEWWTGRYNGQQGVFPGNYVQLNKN

SPOT intensity | Binder
4100 | VATSTSPKLPPRGKQ
200 | NPLPKEPRLPKRKVA
0 | PALPSLPPPPLLNVD

Target: T18, Hof1, Q05080
Test: SPOT array
Details: median of control spots 4086

SPOT intensity | Binder
2 | VATSTSPKLPPRGKQ
5 | NPLPKEPRLPKRKVA
6720 | PALPSLPPPPLLNVD

Target: Sho1, P40073
Test: SPOT array
Details: median of control spots 1148

Sequence of Sho1, P40073 (P40073 287-367): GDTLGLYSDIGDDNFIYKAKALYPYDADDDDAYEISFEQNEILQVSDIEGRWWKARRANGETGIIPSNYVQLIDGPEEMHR

SPOT intensity | Binder
1 | VATSTSPKLPPRGKQ
107 | NPLPKEPRLPKRKVA
83 | PALPSLPPPPLLNVD

Target: T19, Boi2, P39969
Test: SPOT array
Details: median of control spots 1161

SPOT intensity | Binder
1 | VATSTSPKLPPRGKQ
2 | NPLPKEPRLPKRKVA
0 | PALPSLPPPPLLNVD

Target: Bem1-1, P29366
Test: SPOT array
Details: median of control spots 4282

Sequence of Bem1-1, P29366 (P29366 55-141): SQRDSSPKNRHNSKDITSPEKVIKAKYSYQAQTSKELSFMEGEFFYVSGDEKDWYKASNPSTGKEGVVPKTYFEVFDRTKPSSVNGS

SPOT intensity | Binder
6 | VATSTSPKLPPRGKQ
0 | NPLPKEPRLPKRKVA
0 | PALPSLPPPPLLNVD

Target: T20, Bud14, P27637
Test: SPOT array
Details: median of control spots 956

SPOT intensity | Binder
0 | VATSTSPKLPPRGKQ
26 | NPLPKEPRLPKRKVA
1 | PALPSLPPPPLLNVD

Target: T21, Nbp2, Q12163
Test: SPOT array
Details: median of control spots 357

SPOT intensity | Binder
0 | VATSTSPKLPPRGKQ
0 | NPLPKEPRLPKRKVA
0 | PALPSLPPPPLLNVD
